Reference: patent US20210371527A1 (IMAGINAB, published 2021)

Biological target: T1, human CD4 on HPB-ALL cells (human, UniProt P01730 26-458)
T1 construct: The assay used HPB-ALL cells; no signal peptide limits are stated; also called HPB-ALL cells (human T cell leukemia, DSMZ ACC 483); HPC-ALL
Assay: flow cytometry on HPB-ALL cells

B1: deferoxamine conjugated humanized IAB41-1 minibody (other)
chain: EIVLTQSPATLSLSPGERATLSCSARSSVSYLYWYQQKPGQAPRLLIYDTSNLASGIPDRFSGSGSGTDFTLTISRLEPEDAAVYYCQQWSDYPLTFGGGTKLEIKGSTSGGGSGGGSGGGGSSQVQLVQSGAEVKKPGASVKVSCKASGYSFANYWMHWVRQAPGQRLEWIGALYPGNVDTTYNQKFQGRVTITRDTSASTAYMELSSLRSEDTAVYYCTRMGTTLEAPLDYWGQGTLVTVSSEPKSSDKTHTCPPCPPCGGGSSGGGSGGQPREPQVYTLPPSREEMTKNQVSLTCLVKGFYPSDIAVEWESNGQPENNYKTTPPVLDSDGSFFLYSKLTVDKSRWQQGNVFSCSVMHEALHNHYTQKSLSLSPG
modifications: deferoxamine (Df) chelator conjugated; sites of conjugation not stated
notes: also called Df-Hu-IAB41-1
binding result: binds

B2: humanized IAB41-1 minibody (other)
chain: B1 chain
notes: also called Hu-IAB41-1; Construct 41-1
binding result: binds
